Source: US20240301031A1 (JIANGSU HENGRUI PHARMACEUTICALS, published 2024)

Tests used:
[1] = biological target: T1, human BAFF (10056-HNCH, Sino biological) (human, UniProt Q9Y275 134-285); assay: ELISA, BAFF coated, fusion protein titrated
T1 construct: Bought protein
Protocol: The binding activity of the antibodies or fusion proteins for BAFF, APRIL, and IL-12/23 p40 was assayed by the ELISA method (coating an antigen protein). The specific procedures were as follows:
A BAFF (Sino biological, 10056-HNCH), APRIL (R&D Systems, 5860-AP-010/CF), or IL-12/23 p40 (Sino biological, 10052-H08H) protein was diluted to 1 μg/mL with a PBS (BasalMedia, B320) buffer at pH 7.4, and added to a 96-well microplate (Corning, 3590) at 100 μL/well. The plate was incubated at 4° C. overnight. After the liquid was discarded, 300 μL of 5% skim milk (BD, 232100) diluted with PBS was added to each well for blocking, and the plate was incubated at 37° C. for 2 h. After the blocking was completed, the blocking solution was discarded, and the plate was washed 3 times with a PBST buffer (PBS at pH 7.4 containing 0.1% tween-20). 100 μL of test antibody or fusion protein solution diluted in a gradient was added to each well, and the plate was incubated at 37° C. for 1 h. After the incubation was completed, the plate was washed 3 times with PBST. […] The plate was washed 3 times with PBST. 100 μL of TMB chromogenic substrate (KPL, 5120-0077) was added to each well, and the plate was incubated at room temperature for 10-15 min. The reaction was stopped by adding 50 μL of 1 M H₂SO₄ to each well. The plate was read for absorbance values at 450 nm on a microplate reader, the binding curves of the antibodies to an antigen were fitted with software, and the EC₅₀ values were calculated.

[2] = biological target: T1, human BAFF (10056-HNCH, Sino biological); assay: competition ELISA: biotin-labeled BAFF to coated BAFF-R
Protocol: The blocking activity of the antibodies and the fusion proteins for receptors and ligands such as BAFF/BAFF-R, BAFF/BCMA, BAFF/TACI, APRIL/BCMA, APRIL/TACI, and p40/IL-12R1 was assayed by the ELISA method. The specific procedures were as follows:
A receptor protein was diluted to 2 μg/mL with PBS at pH 7.4 (BasalMedia, B320) and added to a 96-well microplate (Corning, 3590) at 100 μL/well. The plate was incubated at 4° C. overnight. After the liquid was discarded, 200 μL of 1% Casein blocking solution (Thermo, 37528) was added to each well for blocking, and the plate was incubated at 37° C. for 2 h. After the blocking was completed, the blocking solution was discarded, and the plate was washed 3 times with a PBST buffer (PBS at pH 7.4 containing 0.1% tween-20) for later use. A biotin-labeled ligand protein at a fixed concentration was mixed with the antibody or fusion protein diluted in gradient, pre-incubated at 37° C. for 30 min, and added to a blocked microplate. The plate was incubated at 37° C. for 1.5 h. After the incubation was completed, the plate was washed 3 times with PBST. 100 μL of streptavidin-HRP (Invitrogen, 434323, diluted at a ratio of 1:4000) was added to each well, and the plate was incubated at 37° C. for 1 h. The supernatant was removed, and the plate was washed 3 times with PBST. 100 μL of TMB chromogenic substrate (KPL, 5120-0077) was added to each well, and the plate was incubated at room temperature for 10-15 min. The reaction was stopped by adding 50 μL of 1 M H₂SO₄ to each well. The plate was read for absorbance values at 450 nm on a microplate reader, the curves for the inhibition of the binding of the ligands to the receptors were fitted with software, and the IC₅₀ values were calculated.

EC50 [1]	IC50 [2]	Binder
64.2 nM	780 nM	TACI-14 Fc (Fc fusion, Fused directly to Fc; two identical polypeptides) SLSCRKEQGKFYDHLLRDCISCASICGQHPKQCAYFDKTHTCPPCPAPEAEGAPSVFLFPPKPKDTLMISRTPEVTCVVVDVSHEDPEVKFNWYVDGVEVHNAKTKPREEQYNSTYRVVSVLTVLHQDWLNGKEYKCKVSNKALPSSIEKTISKAKGQPREPQVYTLPPSRDELTKNQVSLTCLVKGFYPSDIAVEWESNGQPENNYKTTPPVLDSDGSFFLYSKLTVDKSRWQQGNVFSCSVMHEALHNHYTQKSLSLSPGK
0.584 nM	2.62 nM	TACI-11 Fc (Fc fusion, TACI-9 truncated at the C-terminus by 2 amino acids KL, fused directly to Fc; two identical polypeptides) SLSCRKEQGKFYDHLLRDCISCASICGQHPKQCAYFCENDKTHTCPPCPAPEAEGAPSVFLFPPKPKDTLMISRTPEVTCVVVDVSHEDPEVKFNWYVDGVEVHNAKTKPREEQYNSTYRVVSVLTVLHQDWLNGKEYKCKVSNKALPSSIEKTISKAKGQPREPQVYTLPPSRDELTKNQVSLTCLVKGFYPSDIAVEWESNGQPENNYKTTPPVLDSDGSFFLYSKLTVDKSRWQQGNVFSCSVMHEALHNHYTQKSLSLSPGK
0.894 nM	3.86 nM	TACI-12 Fc (Fc fusion, TACI-9 truncated at the C-terminus by 3 amino acids NKL, fused directly to Fc; two identical polypeptides) SLSCRKEQGKFYDHLLRDCISCASICGQHPKQCAYFCEDKTHTCPPCPAPEAEGAPSVFLFPPKPKDTLMISRTPEVTCVVVDVSHEDPEVKFNWYVDGVEVHNAKTKPREEQYNSTYRVVSVLTVLHQDWLNGKEYKCKVSNKALPSSIEKTISKAKGQPREPQVYTLPPSRDELTKNQVSLTCLVKGFYPSDIAVEWESNGQPENNYKTTPPVLDSDGSFFLYSKLTVDKSRWQQGNVFSCSVMHEALHNHYTQKSLSLSPGK
3.66 nM	30.1 nM	TACI-13 Fc (Fc fusion, Fused directly to Fc; two identical polypeptides) SLSCRKEQGKFYDHLLRDCISCASICGQHPKQCAYFCDKTHTCPPCPAPEAEGAPSVFLFPPKPKDTLMISRTPEVTCVVVDVSHEDPEVKFNWYVDGVEVHNAKTKPREEQYNSTYRVVSVLTVLHQDWLNGKEYKCKVSNKALPSSIEKTISKAKGQPREPQVYTLPPSRDELTKNQVSLTCLVKGFYPSDIAVEWESNGQPENNYKTTPPVLDSDGSFFLYSKLTVDKSRWQQGNVFSCSVMHEALHNHYTQKSLSLSPGK
